The values below come from publication doi:10.1101/2025.02.10.637573 (bioRxiv, 2025).

Assay [1] addresses Vps74 (endogenous, wild-type yeast cells) (Saccharomyces cerevisiae (strain ATCC …, UniProt Q06385)). The assay is described as follows: co-IP.
Assay [2] deals with Twin-Strep-Vps74 (yeast, UniProt Q06385). The assay is described as follows: pull-down.
Assay [3] concerns the target Vps74 (bacterially expressed, as used in the in vitro mixing assays) (yeast, UniProt Q06385). The assay is described as follows: pull-down.

Vps74 (endogenous, wild-type yeast cells) (Saccharomyces cerevisiae, sequence (Q06385 whole entry): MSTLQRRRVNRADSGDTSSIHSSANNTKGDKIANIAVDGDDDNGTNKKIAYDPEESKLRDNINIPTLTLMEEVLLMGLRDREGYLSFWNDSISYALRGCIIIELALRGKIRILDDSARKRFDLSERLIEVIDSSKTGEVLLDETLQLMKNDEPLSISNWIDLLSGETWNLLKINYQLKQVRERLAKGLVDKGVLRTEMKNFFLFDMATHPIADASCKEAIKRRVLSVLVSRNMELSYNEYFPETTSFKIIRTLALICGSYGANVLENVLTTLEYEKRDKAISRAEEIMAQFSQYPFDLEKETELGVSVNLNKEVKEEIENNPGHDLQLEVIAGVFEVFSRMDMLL
Vps74 (bacterially expressed, as used in the in vitro mixing assays), sequence (Q06385 whole entry): as above
Twin-Strep-Vps74, sequence (Q06385 whole entry): as above

B1: Vps74InNb#4-HA (expressed in the cytoplasm of yeast cells) (VHH)
VHH: QVQLQESGGGLVQAGGSLRLSCAASGSISTIVGMGWYRQAPGKERELVAAITGGSSTNYADSVKGRFTISRDNAKNTVYLQMNSLKPEDTAVYYCAAVSYEYRSSPYPETYWGQGTQVTVSS
In the case of B1, the binding result in assay [1] is “binds”.

B2: Vps74InNb#4 (purified from the periplasm of E. coli) (VHH)
VHH: B1 VHH
As for B2, the binding result in assay [2] and in assay [3] was “binds” each time.
